The text below walks through data of US20200362021A1 (PHANES THERAPEUTICS, published 2020).

Experiment [1] has as its target apelin 13 (competition peptide 1-13, …). The experiment in a line: cell-based or functional assay.
A further experiment concerns the target T1, pyro-apelin 13 (N-terminal pyroglutamate).
T1 peptide: ERPRLSHKGPMPF
The experiment is described as follows: cell-based or functional assay.

Experiment [2] has as its target T2, biotin-apelin-13 (biotin-…) (N-terminal biotin).
T2 construct: also called Biotin-APL13
The experiment in a line: SPR (Biacore) with biotin-apelin-13, humanized IgG1 mAb in HEK293 supernatant. From the text: The rabbit anti-apelin mAb C8 was humanized to reduce the potential of immunogenicity when used in human patients. The sequences of the variable regions of the heavy and light chains (VH and VL) were compared with the human antibody sequences in the Protein Data Bank (PDB) database and a homology model was built by applying SWISS-modeling. The CDRs in both the heavy and light chains of the rabbit mAb were grafted into human frameworks that have the highest possibility of maintaining the proper structure likely required for antigen binding. Backmutations from human residue to rabbit residue were designed when necessary. The sequences of the humanized VH and VL regions are shown in Table 11 and Table 12, respectively. The humanized VH and VL regions were fused to human IgG1 heavy chain and kappa light chain constant regions, respectively, to generate humanized mAbs. Constructs corresponding to the mAb sequences were used for transient transfection in HEK 293 cells and the supernatants were analyzed for the affinity of each humanized mAb for apelin.

Experiment [3] has as its target T2, biotin-apelin-13 (biotin-…). The experiment in a line: SPR (Biacore), biotin-apelin-13 on streptavidin CM5 chip, mAb at 12.5-100 nM. As to the method:
Anti-apelin mAbs at four different concentrations (12.5 nM, 25 nM, 50 nM and 100 nM) were captured on the chip surface. The on- and off-rate for antibody-antigen binding were measured, curve fitted and calculated.

The target in another experiment is T3, 9-13.
T3 construct: also called apelin peptide 9-13 (GPMPF)
T3 peptide: GPMPF
The experiment is described as follows: competition ELISA, captured mAb, peptide competes with biotin-apelin-13, A405. The protocol: (§1) Goat-anti-rabbit IgG was immobilized on an ELISA plate.
(§2) The antibody binding sites for anti-apelin mAbs C8, C24, and C25 were mapped using an ELISA-based peptide competition assay. […] Each of the competition peptides (Table 7) was assessed for its ability to inhibit biotin-apelin-13 binding to the mAb. An inhibition signal reflects the ability of the competition peptide to bind to the mAb in solution.
(§3) For the peptide competition assay, goat anti-rabbit IgG in carbonate coating buffer was coated on high binding ELISA plates at 1 μg/ml overnight. […] After incubation at room temperature for 60 minutes, the plates were washed and then streptavidin-conjugated to alkaline phosphatase was added, and the binding was detected by adding PNPP substrate and reading absorbance of ELISA plates at 405 nm. Each competition peptide or control sample was assayed in duplicate for a given mAb. […] “No comp:” no competition peptide was added; “No Ab, No Comp:” neither competition peptide nor anti-apelin mAb was added.

Another experiment concerns the target T4, 10-13.
T4 construct: also called apelin peptide 10-13 (PMPF)
T4 peptide: PMPF
The experiment is described as above. The protocol: as §1, §2, §3

In experiment [4] the target is T5, apelin peptide 1-12 (QRPRLSHKGPMP).
T5 peptide: QRPRLSHKGPMP
The description is as above. The protocol: as §1, §2, §3

For experiment [5], the target named is T6, apelin peptide 3-13 (PRLSHKGPMPF).
T6 peptide: PRLSHKGPMPF
The experiment is described as above. The protocol: as §1, §2, §3

Experiment [6] has as its target T7, apelin peptide 4-13 (RLSHKGPMPF).
T7 peptide: RLSHKGPMPF
Described as above. As to the method: as §1, §2, §3

For experiment [7], the target named is T8, apelin peptide 5-13 (LSHKGPMPF).
T8 peptide: LSHKGPMPF
The description is as above. As to the method:
as §1, §2, §3

The target in experiment [8] is T9, apelin peptide 6-13 (SHKGPMPF).
T9 peptide: SHKGPMPF
The description is as above. As to the method:
as §1, §2, §3

The target of experiment [9] is T10, apelin peptide 7-13 (HKGPMPF).
T10 peptide: HKGPMPF
The experiment is described as above. The protocol: as §1, §2, §3

For experiment [10], the target named is T11, apelin peptide 8-13 (KGPMPF).
T11 peptide: KGPMPF
The experiment is described as above. As to the method:
as §1, §2, §3

Experiment [11] has as its target T12, apelin peptide 2-13 (RPRLSHKGPMPF).
T12 peptide: RPRLSHKGPMPF
Described as above. As to the method:
(§4) Goat anti-rabbit IgG was immobilized on an ELISA plate. […] Several competition peptides were used as controls.
as §3

Experiment [12] deals with alanine scanning peptide 8A (AGPMPF). The description is as above. The protocol:
as §4, §3

The target of experiment [13] is alanine scanning peptide 9A (KAPMPF). Described as above. The protocol: as §4, §3
Experiment [14] has as its target T13, alanine scanning peptide 10A (KGAMPF).
T13 peptide: KGAMPF
The description is as above. The protocol: as §4, §3

Experiment [15] has as its target T14, alanine scanning peptide 13A (KGPMPA).
T14 peptide: KGPMPA
Described as above. As to the method: as §4, §3

B1: humanized anti-apelin mAb A31 (human IgG1 backbone) (antibody, V domains shown)
VH: QSLEESGGGLVQPGGSLRLSCAVSGIDLYSNRMSWVRQAPGKGLEWVGSIGSSPWYASWAQGRFTISRDNSNTVYLQMNSLTAEDTATYFCAKGGYRPGASVWGQGTLVTVSS
VL: DIQLTQSPSSLSASVGDRVTITCQSSQSIYDNNDLAWYQQKPGKTPKRLIYLASSLDSGVPSRFSGSGSGTDFTLTISSLQPEDVATYYCAGGYSGDIYTFGGGTKVEIK
notes: humanized from C8; tested as HEK293 supernatant
On to B1, for which the figures for the IC50 (in experiment [1]; with pyro-apelin 13) were 25 nM and 19.9 nM, respectively. The molecule also registered an equilibrium dissociation constant (Kd) in [2] of 0.148 pM.

B2: anti-apelin mAb C24 (antibody, V domains shown)
VH: QSLEESGGRLVTPGTPLTLTCTVSGIDLYTNRVSWVRQAPGKGLDWIGSIGSSPWYASWAQGRFTISKTSTTVNLKITSSTTEDTATYFCAKGGYRPGGSIWGPGTLVTVSS
VL: QVLTQSASPVSAAVGDSVTIACQSSQSVYDNNDLGWYQQKPGQTPKRLIYLASSLDSGVPSRFSGSGSGTQFTLTISDLECDDAATYYCAGGYSGDIYTFGGGTEVVVK
notes: recombinant rabbit IgG made in HEK293 cells
In experiment [3], B2 came in with a dissociation constant (Kd) of 0.000401 nM. Besides, the binding result with 9-13 is “binds”; with 10-13, “binds”; in experiment [4] it was “no binding (tested: peptide concentration not stated)”; in experiment [5] it was “binds”; in experiment [6], “binds”; in [7], “binds”. In addition, the binding result in experiment [8], in experiment [9], in experiment [10], in [11], in experiment [12] and in [13] was “binds” in each case. Moreover, the results for the binding result in experiment [14] and in experiment [15] were “binds” and “no binding (tested: peptide concentration not stated)”, respectively.

B3: anti-apelin mAb C25 (antibody, V domains shown)
VH: QSLEESGGGLVTPGTPLTLTCTVSGIDLYTNRMSWVRQAPGKGLEWIGSIGSSPWFASWALGRFTISKTSTTVNLKITSPTTEDTATYFCAKGGYRPGASVWGPGTLVTVSS
VL: QVLTQTESPVSAPVGGTVTIACQSSQSVYDNNDLAWYQQKAGQTPKRLIFLASSLDSGVPSRFKGSGSGTEFTLTISDLECDDAATYYCAGGYNGDIYTFGGGTEVVVK
notes: as for B2
The molecule B3 came in with a Kd in experiment [3] of 0.0508 nM. Besides, the binding result with 9-13 is reported as “binds”; with 10-13, “binds”; in [4] it was “no binding (tested: peptide concentration not stated)”; in experiment [5] it was “binds”; in experiment [6], “binds”; in experiment [7], “binds”. Moreover, the binding result in experiment [8], in experiment [9], in experiment [10], in experiment [11], in experiment [12] and in experiment [13] was “binds” in each case. The binding result in [14] was “binds”; in experiment [15], “no binding (tested: peptide concentration not stated)”.
